Residue numbers refer to the chain shown, from its start.
T1: NT-4 (neurotrophin-4) (Homo sapiens, UniProt P34130 P34130:81-210)
T1 sequence: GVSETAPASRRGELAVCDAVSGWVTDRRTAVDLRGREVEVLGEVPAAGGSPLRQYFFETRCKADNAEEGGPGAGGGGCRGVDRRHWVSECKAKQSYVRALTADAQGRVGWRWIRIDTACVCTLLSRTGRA

B1: SEQ ID NO: 48 (ssRNA)
RNA: GGGAGAACUUCGACCAGAAGUUGGCACAUCCUGCUGCGGAGUUUCCGUCUCGGUGGCUGUUAUGUGCGCAUACAUGGAUCCUC
modifications: 2'-F C/U, dA, 2'-OH G
B2: SEQ ID NO: 82(55) (ssRNA)
RNA: GGGUCCUGGAUAAGAGUUUCCGUCUCGUAUCCUGUUACCC
modifications: as 82(25) except 5' PEG80TS4 instead of idT
B3: SEQ ID NO: 82(1) (ssRNA)
RNA: B2 RNA
modifications: 2'-OMe G (G8,G34 2'-OH), dA, 2'-F C/U; 5',3' idT
B4: SEQ ID NO: 29 (ssRNA)
RNA: GGGAGAACUUCGACCAGAAGUUCACAUCCUGCUGCGAAGUUUCCUUCUUCGUGGCUGUUAUGUGCGCAUACAUGGAUCCUC
modifications: 2'-F C/U, dA, 2'-OH G
B5: SEQ ID NO: 36 (ssRNA)
RNA: GGGAGAACUUCGACCAGAAGGUACGUUAGUACGUUUGCAUAUGUACAACCUUGCAUACGAUACGUAGGUUAUGUGCGCAUACAUGGAUCCUC
modifications: 2'-F C/U, dA, 2'-OH G
B6: SEQ ID NO: 30 (ssRNA)
RNA: GGGAGAACUUCGACCAGAAGUUGGCACAUCCUGCUGCGAAGGUUCCGUCUUCGUGGCUGUACUAUGUGCGCAUACAUGGAUCCUC
modifications: 2'-F C/U, dA, 2'-OH G
B7: SEQ ID NO: 22 (ssRNA)
RNA: B1 RNA with G39U, C51U, G52C
modifications: 2'-F C/U, dA, 2'-OH G
B8: SEQ ID NO: 27 (ssRNA)
RNA: B1 RNA with G39C, C51G, G52C
modifications: 2'-F C/U, dA, 2'-OH G
B9: SEQ ID NO: 37 (ssRNA)
RNA: B1 RNA with G36A, G39U, G47U, C51U, G52C
modifications: 2'-F C/U, dA, 2'-OH G
B10: SEQ ID NO: 31 (ssRNA)
RNA: B1 RNA with G39C, G47C, C51G, G52C
modifications: 2'-F C/U, dA, 2'-OH G
B11: SEQ ID NO: 25 (ssRNA)
RNA: B1 RNA with G39C, C51A, G52C
modifications: 2'-F C/U, dA, 2'-OH G
B12: SEQ ID NO: 33 (ssRNA)
RNA: B1 RNA with U35C, G39U, C46A, G47A, C51U, U58G, G59U, U60G
modifications: 2'-F C/U, dA, 2'-OH G
B13: SEQ ID NO: 34 (ssRNA)
RNA: B1 RNA with U35C, G39U, C51G, G52C
modifications: 2'-F C/U, dA, 2'-OH G
B14: SEQ ID NO: 35 (ssRNA)
RNA: B1 RNA with C34U, G39U, G47U, C51A, G52C
modifications: 2'-F C/U, dA, 2'-OH G
B15: SEQ ID NO: 28 (ssRNA)
RNA: B1 RNA with G39U, G47A, C51G, G52C
modifications: 2'-F C/U, dA, 2'-OH G
B16: SEQ ID NO: 32 (ssRNA)
RNA: B1 RNA with G47U, C51U, G52C
modifications: 2'-F C/U, dA, 2'-OH G
B17: SEQ ID NO: 24 (ssRNA)
RNA: B1 RNA with G39A, G52C
modifications: 2'-F C/U, dA, 2'-OH G
B18: SEQ ID NO: 23 (ssRNA)
RNA: GGGAGAACUUCGACCAGAAGUGGCACAUCCUGCUGCGUAGUUUCCGUCUGCGUGGCUGUUAUGUGCGCAUACAUGGAUCCUC
modifications: 2'-F C/U, dA, 2'-OH G
B19: SEQ ID NO: 26 (ssRNA)
RNA: B18 RNA with G50U, U53C
modifications: 2'-F C/U, dA, 2'-OH G

molecular target: T2, NGF (nerve growth factor) (Homo sapiens, UniProt P01138 P01138:122-241); assay: SPR; more than 40N control; details: tags: R&D Systems; chain copies: 2
T2 sequence (P01138 122-241, one chain of several): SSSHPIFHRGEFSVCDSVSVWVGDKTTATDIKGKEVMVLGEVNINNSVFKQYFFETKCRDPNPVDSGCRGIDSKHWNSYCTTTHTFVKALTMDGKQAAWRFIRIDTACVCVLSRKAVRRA

Binder	binding result
B1	binds

molecular target: T1, NT-4 (neurotrophin-4); assay: cell_activity; TF-1; details: tags: R&D Systems; chain copies: 2
From the text: Using TF-1 cells, whether NGF aptamer inhibits BDNF, NT-3, NT-4 was examined. Human receptor genes (TrkB, TrkC, p75) for respective neurotrophic factors were introduced into TF-1 cells (ATCC Number: CRL-2003), which is a human erythroleukemic cell line, by using a retrovirus vector to give cells that highly express these receptors stably. TF-1 cells introduced with TrkB and p75 were used for the evaluation of inhibitory activity against BDNF, TF-1 cells introduced with TrkC and p75 were used for the evaluation against NT-3, and TF-1 cells introduced with TrkB alone were used for the evaluation against NT-4. These cells were suspended in an RPMI-1640 medium containing 20% fetal bovine serum, and seeded in a white 96 well flat-bottom plate at 1000 cells (50 μL) per well. Thereto was added a mixed solution 50 μL of human BDNF (final concentration 0.074 nM) or NT-3 (final concentration 0.074 nM) or NT-4 (final concentration 0.071 nM) and the aptamer (final concentration 1 μM-0.01 nM), which had been pre-reacted at room temperature for 30 min in a serum-free RPMI-1640 medium, 3 days later, 100 μL of CellTiter-Glo reagent for CellTiter-Glo Luminescent Cell Viability Assay (manufactured by Promega) was added to each well, chemiluminescence was measured by a microplate reader. With the amount of luminescence per well obtained by the addition of BDNF or NT-3 or NT-4 alone and culture of the cells for 3 days as inhibitory activity 0%, and that of the well obtained by culture for 3 days without addition of BDNF or NT-3 or NT-4 as inhibitory activity 100%, the inhibitory activity of the aptamer was calculated from the amount of luminescence per well obtained by culturing with the addition of BDNF or NT-3 or NT-4 and the aptamer in mixture. When the inhibitory activity was 0 or below, ‘0%’ is indicated. The 50% inhibitory concentration (IC₅₀) was determined from the concentrations at two, above and below points sandwiching the 50% inhibitory activity. An IC₅₀ value indicated as “>X” means that the inhibitory activity was not more than 50% when the indicated concentration X was the maximum measured concentration. N.D. means not measured.

Binder	IC50 [nM]
B2	14.3
B3	< 100

molecular target: T2, NGF (nerve growth factor); assay: SPR; more than 40N control; details: tags: R&D Systems; chain copies: 2; remark: another data set of the same source
Method: As the measuring apparatus, BIAcore2000 manufactured by BIAcore was used and, as the sensor chip, CM5 that reacts with an amino group was used. […] For the reaction of an amino group on the protein side and a carboxyl group on the chip side, ethyl-3-carbodiimide hydrochloride and N-hydroxysuccinimide were used. After the reaction, blocking by ethanolamine-HCl was performed. The immobilized amount of NGF was set to 3,000-4,000 RU. An aptamer for analyte was prepared to 0.15 μM-0.5 μM. As a running buffer, solution A was used. Here, solution A is a mixed solution of 145 mM sodium chloride, 5.4 mM potassium chloride, 1.8 mM calcium chloride, 0.8 mM magnesium chloride, 20 mM Tris (pH 7.6), 0.05% Tween 20. As a regeneration solution, a mixed solution of 1M NaCl and 50 mM NaOH was used. NGF was immobilized on FC2, and the results of FC1 were subtracted to give a final sensorgram.
The measurement was as shown in Examples 1 and 2 and the surface plasmon resonance method was used.

Binder	binding result
B4	binds
B5	binds
B6	binds
B7	binds
B8	binds
B9	binds
B10	binds
B11	binds
B12	binds
B13	binds
B14	binds
B15	binds
B16	binds
B17	binds
B18	binds
B19	binds

Source: US20140235701, “NGF APTAMER AND APPLICATION THEREOF” (RIBOMIC INC., published 2014)
